# Measurements from article PMC9585510.
# Key:
# [1] = molecular target: Marchantia polymorpha plant cysteine oxidase (MpPCO), with N-terminal His6-tag (Marchantia polymorpha)
# [2] = molecular target: MpPCOc, Marchantia polymorpha plant cysteine oxidase with the N-terminal His6-tag removed (Marchantia polymorpha)
"KM for the peptide substrate in steady-state kinetics of Nt-Cys oxidation (LC-MS; atmospheric O2, 25 °C, 50 mM bis-tris propane, 50 mM NaCl, 1 mM TCEP, pH 8.0; fitted with substrate inhibition) [1] [μM]","KM for the peptide substrate in steady-state kinetics of Nt-Cys oxidation (LC-MS; atmospheric O2, 25 °C, 50 mM bis-tris propane, 50 mM NaCl, 1 mM TCEP, pH 8.0) [2] [μM]",Molecule
11,,"AtRAP2(2-15), 14-mer peptide representing the N-terminus of the A. thaliana ERF-VIIs RAP2.2 and RAP2.12"
,509,CRMNKRLGKGETGL
